Test results as given in patent US20250270289.

B1: calf-intestinal alkaline phosphatase (protein)
chain: LVPVEEEDPAFWNRQAAQALDVAKKLQPIQTAAKNVILFLGDGMGVPTVTATRILKGQMNGKLGPETPLAMDQFPYVALSKTYNVDRQVPDSAGTATAYLCGVKGNYRTIGVSAAARYNQCKTTRGNEVTSVMNRAKKAGKSVGVVTTTRVQHASPAGAYAHTVNRNWYSDADLPADAQMNGCQDIAAQLVNNMDIDVILGGGRKYMFPVGTPDPEYPDDASVNGVRKRKQNLVQAWQAKHQGAQYVWNRTALLQAADDSSVTHLMGLFEPADMKYNVQQDHTKDPTLQEMTEVALRVVSRNPRGFYLFVEGGRIDHGHHDDKAYMALTEAGMFDNAIAKANELTSELDTLILVTADHSHVFSFGGYTLRGTSIFGLAPSKALDSKSYTSILYGNGPGYALGGGSRPDVNDSTSEDPSYQQQAAVPQASETHGGEDVAVFARGPQAHLVHGVEEETFVAHIMAFAGCVEPYTDCNLPAPTTATSIPD
B2: protein Tyr phosphatase 1B (protein)
chain: MEMEKEFEQIDKSGSWAAIYQDIRHEASDFPCRVAKLPKNKNRNRYRDVSPFDHSRIKLHQEDNDYINASLIKMEEAQRSYILTQGPLPNTCGHFWEMVWEQKSRGVVMLNRVMEKGSLKCAQYWPQKEEKEMIFEDTNLKLTLISEDIKSYYTVRQLELENLTTQETREILHFHYTTWPDFGVPESPASFLNFLFKVRESGSLSPEHGPVVVHCSAGIGRSGTFCLADTCLLLMDKRKDPSSVDIKKVLLEMRKFRMGLIQTADQLRFSYLAVIEGAKFIMGDSSVQDQWKELSHEDLEPPPEHIPPPPRPPKRILEPHN

Target: Cav(pnY)GFP
Sequence (Q03135 whole entry): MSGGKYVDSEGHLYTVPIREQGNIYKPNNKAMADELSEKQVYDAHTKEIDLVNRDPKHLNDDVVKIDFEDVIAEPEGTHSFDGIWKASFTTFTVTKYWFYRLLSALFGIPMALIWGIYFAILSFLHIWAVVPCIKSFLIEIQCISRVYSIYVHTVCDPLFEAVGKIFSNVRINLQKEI

Row | Protein | dephosphorylation of pnY (Western blot with phospho-caveolin antibody) | dephosphorylation of pnY, seen as loss of the phospho-caveolin antibody signal in a Western blot
1 | B1 | Cav(pnY)GFP was stable in buffered conditions, but dephosphorylated in a time and concentration dependent fashion | IB:pCav band present with CIP buffer alone, absent with CIP buffer + enzyme; total protein band present in both lanes
2 | B2 | Cav(pnY)GFP was stable in buffered conditions, but dephosphorylated in a time and concentration dependent fashion | IB:pCav band present with PTP1B buffer alone, absent with PTP1B buffer + enzyme; total protein band present in both lanes, faint in the enzyme lane
